One test addresses protein G agarose (UniProt P06654 228-352). Nature of the test: protein G agarose precipitation, SDS-PAGE with Coomassie staining.
The target of a further test is T1, human C1q protein (human, UniProt P02745 23-245; P02746 28-253; P02747 29-245).
T1 construct: also called human C1q complement
Nature of the test: ELISA on strips coated with human C1q, HRP-anti-human Ab detection. A general note: In an ELISA, binding on a coated surface is turned into a signal by an enzyme label.

T1 sequence (P02745 23-245 limits assumed, chain 1 of 3): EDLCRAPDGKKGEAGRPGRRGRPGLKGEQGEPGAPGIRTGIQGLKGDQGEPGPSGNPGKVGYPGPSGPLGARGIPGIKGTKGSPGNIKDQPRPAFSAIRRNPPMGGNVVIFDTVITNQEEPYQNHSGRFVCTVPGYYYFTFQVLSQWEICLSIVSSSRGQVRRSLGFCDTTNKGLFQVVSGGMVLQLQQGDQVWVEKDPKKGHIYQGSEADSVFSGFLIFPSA
T1 sequence (P02746 28-253 limits assumed, chain 2 of 3): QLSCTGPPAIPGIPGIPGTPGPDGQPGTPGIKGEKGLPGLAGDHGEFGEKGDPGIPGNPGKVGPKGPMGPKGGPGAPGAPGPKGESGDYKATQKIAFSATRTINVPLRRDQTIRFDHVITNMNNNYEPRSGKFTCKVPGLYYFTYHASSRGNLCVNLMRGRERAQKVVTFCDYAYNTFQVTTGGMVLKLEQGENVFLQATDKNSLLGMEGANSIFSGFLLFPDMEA
T1 sequence (P02747 29-245 limits assumed, chain 3 of 3): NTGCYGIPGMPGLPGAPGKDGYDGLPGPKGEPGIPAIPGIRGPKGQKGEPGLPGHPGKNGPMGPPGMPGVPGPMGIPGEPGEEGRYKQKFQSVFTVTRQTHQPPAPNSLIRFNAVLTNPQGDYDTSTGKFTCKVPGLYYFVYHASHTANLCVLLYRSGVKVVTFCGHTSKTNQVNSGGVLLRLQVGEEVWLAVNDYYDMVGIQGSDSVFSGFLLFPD
protein G agarose, sequence (P06654 228-352): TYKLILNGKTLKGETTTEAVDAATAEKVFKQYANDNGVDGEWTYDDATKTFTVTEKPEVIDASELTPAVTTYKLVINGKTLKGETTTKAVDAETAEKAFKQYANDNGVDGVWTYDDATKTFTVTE

B1: mA116 scFv Ab (scFv)
scFv: QVQLQESGPELVKPGASVKISCKASGYTFTDYHVHWVKGKPGQGLEWIGMTYPGFDNTNYSETFKGKATLTVDTSSNTVYMQLSSLTSEDTAVYFCARGVGLDYWGQGTTVTVSSGGGGSGGGGSGGGGSDIELTQSPNSLSTSIGDRIRITCKASQDVDTAVGWYQQRPGQSPKLLIFWSSTRHTGVPDRFTGSGSGTDFTLTISNVQSEDLADYFCHQYSSYPFTFGSGTKLEIK
notes: also called repaired A116 scFv Ab
For the molecule B1, the binding result with protein G agarose is “no binding”.

B2: mA116huFc Ab (Fc fusion)
chain: MRGSHHHHHHGMASMTGGQQMGRDLYDDDDKDRWGSELEICSWYHGIPLVVPFYAAQPAMAQVQLQESGPELVKPGASVKISCKASGYTFTDYHVHWVKGKPGQGLEWIGMTYPGFDNTNYSETFKGKATLTVDTSSNTVYMQLSSLTSEDTAVYFCARGVGLDYWGQGTTVTVSSGGGGSGGGGSGGGGSDIELTQSPNSLSTSIGDRIRITCKASQDVDTAVGWYQQRPGQSPKLLIFWSSTRHTGVPDRFTGSGSGTDFTLTISNVQSEDLADYFCHQYSSYPFTFGSGTKLEIKRAAAGCLVKDYFPEPVTVSWNSGALTSGVHTFPAVLQSSGLYSLSSVVTVPSSSLGTQTYICNVNHKPSNTKVDKRVEPKSCDKTHTCPPCPAPELLGGPSVFLFPPKPKDTLMISRTPEVTCVVVDVSHEDPEVKFNWYVDGVEVHNAKTKPREEQYNSTYRVVSVLTVLHQDWLNGKEYKCKVSNKALPAPIEKTISKAKGQPREPQVYTLPPSRDELTKNQVSLTCLVKGFYPSDIAVEWESNGQPENNYKTTPPVLDSDGSFFLYSKLTVDKSRWQQGNVFSCSVMHEALHNHYTQKSLIRLLTKPERKLSWLLPPLSNN
notes: also called recombinant mA116huFc Ab; 70 kDa protein
For B2, the binding result with human C1q protein was “binds”.

(Values after patent US20040005333A1 (HER MAJESTY THE QUEEN IN RIGHT OF CANADA AS REPRESENTED BY …, published 2004).)
